According to the DeepSol protein solubility set:

Assay: soluble on expression in E. coli; label from the status in PepcDB or PDB records

Row | Sequence | soluble on expression in E. coli
1 | MAHHHHHHMEKTIITLLPVVEKAPKENMERVLDVFRHYLKRYGADHYIYNAVMQAAAFAKNYEQAEQLFKEMETLGLEPNAQSYVNMMLAAKLCGLPPEKSEAYFKRAVKDGAMQSVMRMDTEFRMWMDQLDRLGSFTASSGYLSVNEEGAKPMPRDMWAIWGWHRSESKFISRRDLIMQQVRARVHSGKELVGTVYTKTRRQPWAKFNGMLRHDYNGPSYRAPTIFPDAPEYTNEAGHKAF | not soluble
2 | MELLLLSNSTLPGKAWLEHALPLIANQLNGRRSAVFIPFAGVTQTWDEYTDKTAEVLAPLGVNVTGIHRVADPLAAIEKAEIIIVGGGNTFQLLKESRERGLLAPMADRVKRGALYIGWSAGANLACPTIRTTNDMPIVDPNGFDALDLFPLQINPHFTNALPEGHKGETREQRIRELLVVAPELTVIGLPEGNWIQVSNGQAVLGGPNTTWVFKAGEEAVALEAGHRF | soluble
3 | MGSDKIHHHHHHAQNNADDKYEILSLTDMFSLFKDSKNSVPQDYDEIYVPGYFYEPSFMYPSPLKKEFCCVAQWRIPNRNCKYLFLEDIFPQNKDSLKQASLELQKIKEKYGMRESAMYQDVPAGYNGIIAKWFTGRLFVLHCPRKLFNTVVSKKASLISIHKGRISDEKQITPDEGKFESSCFPQKGGMILIREDGCWYDDIKRNIDFLISPLINENFPTEFSKHVGREYSFLLEVVPKTGQIIPHLLLPKTLSTDEKMIVSYLEKQIRKFPENSFGPLITIDKKMLYGRYLKFIVKDEKFKIEDYLEY | not soluble
4 | MDVKHNPKKEVIERSLNATEKAIESIREGDLVRRHTVLELRDMQISMSEDFDQIRGMMHELDHQIDKERAENSKWMNRKMEKAKATADQALASTLMVKDVQLLEKKVNILKDSVIQVNKAFYKYEKDVDMKDLMDQVTDMVHRTEKKEQDALEPHATDEQAIEKAFRGAIEGLYGLKSSNPKVMEEAKLLAGEMRVFRDAAANKNFHSMISKVAPGKSGVSLDSSSSESSFSTSASSSLAKPNGKSSSSAASSISGSH | not soluble
5 | MGSDKIHHHHHHMPIIATAAWSIPKKVADRFAQGGSSLTRYASVFDGVEVNSTFYRRHKTSTFATWEHSVPDAFRFAVKIPKEITHTSAMRDIAEPFDTFLEDIAPLGEKRGPLLCQLPPSLTFDVEVLQTAFKTMRDADDGPIVIEVRHKSWASAEALDLLKTYRIDRVLADPAPVWPVEDFDTPPKYVRLHGKPKIYYSSYTDDEIKSFSALLAPDSWCVFDNTASGAAIENALNMAEIR | not soluble
6 | MGSDKIHHHHHHMSIIDSQESTLYQQLAETFATAIHQGTLAPGSRLPSIRRVAGSHQVSVNTVLNAWRILEDRGLIEARPQSGYFVRGRLPSLTESKPHRAQVIVPGSEKLDLIDTVFAAQTHPDYTNISLACPQHTDFYPTEKISRIAASLLRRQPELIGRYALPPGSERLRREVARRAMDLGMTLTREDITITHGCMEALQLALRTVTQPGDCVGLETPTYFYLFPLLASLGLKTVEIPTDPQRGLSLDALELLLSENRLQAIIAMPNAQNPLGCSMTLADKKRLAKLVNDYQVPLIEDGLYSELQFTWPLSPTVKAFDREGWVIYCSSFTKTLAPDFRIGWMASGRFRAQVARLKAVSSMAESALLSETLAQFLESGGYDHHLRTLRRRYAAQMDEARGLIARHFPQGTRATQPQGGFVFWLELPGGVDGVELFHRLLQEKICVTPGELYTLSGRCKHALRLSCCYPFDERYTYALKRAGALACEMSGIGPGNEG | not soluble
7 | GAMPPIFLPPPNYLFVRDVWKSNLYSEFAVIRQLVSQYNHVSISTEFVGTLARPIGTFRSKVDYHYQTMRANVDFLNPIQLGLSLSDANGNKPDNGPSTWQFNFEFDPKKEIMSTESLELLRKSGINFEKHENLGIDVFEFSQLLMDSGLMMDDSVTWITYHAAYDLGFLINILMNDSMPNNKEDFEWWVHQYMPNFYDLNLVYKIIQEFKNPQLQQSSQQQQQQQYSLTTLADELGLPRFSIFTTTGGQSLLMLLSFCQLSKLSMHKFPNGTDFAKYQGVIYGIDGDQ | soluble
8 | MSEENITNVQENASDYNEDQIQVLEGLEAVRKRPGMYIGSTSQRGLHHLVWEIVDNAIDEALAGFCTEIEITIEADNSITVRDNGRGIPTGINEKIGRPTVEVIFTVLHAGGKFGGGGYKVSGGLHGVGASVVNALSTSLEVYVHREGQKYYQRFERGDVVMDMEEQGETDYRGTIVHFTPDPQIFTETTEFDFDTLRTRTRELAFLNRGLTISIEDKREEHKVRKDFHYEGGIRSYVEHLNKAKDVIHEPPIYLEGERDDIMVEISMQYNTGFSSNIISFANNIHTYEGGTHESGFKTALTRVINDYARRNKLFKDSDDNLSGEDVREGLTAIISIKHPDPQFEGQTKTKLGNSEARSITDKLFSEALNKFMMENPDVAKKIVEKGVVASRARLAAKRAREVARKSSGLEISSLPGKLADCSSRNPEISELYIVEGDSAGGSAKQGRDRLFQAILPIRGKILNVEKARLDRILANEEIRTIFTAMGTGFGGDFDVSKSRYHKLIIMTDADVDGAHIRTLLLTLFYRYMRPLLDAGYIYIAQPPLYQIKHGKQIEYVYSDGQLEDYLASLDGDTKYSIQRYKGLGEMNPEQLWDTTMNPEHRTLLQVNIKDAIDADETFEMLMGDRVEPRRKFIEDNAQYVKNLDV | not soluble
9 | MALQGISVMELSGLAPGPFCAMVLADFGARVVRVDRPGSRYDVSRLGRGKRSLVLDLKQPRGAAVLRRLCKRSDVLLEPFRRGVMEKLQLGPEILQRENPRLIYARLSGFGQSGSFCRLAGHDINYLALSGGRNSIFKFFSVENSEIESVGSTSRTEHVGWWSTFLYDLQDSRWGIHGCWSNRTPVLRAADQRTWTKV | not soluble
10 | MSLSDDRLSLQTFLTRVTAVRLKLQQVVTAPDPEAMIQVLAQTVFQGKGADLTDIQAYGNLIAASLGADWGPAANTLFVRPLDQAWQQILLPSSAGLNRAWQRAIVDEWQGAFSGRYPFAATSSDASLPMLGQMIRADSGRIEQFLAQQLMGLLRKEGSRWVADSRQSQGLRFNPDFLTAINQLSQLADVLYTDGGMGVSFELQGKPVRDVVQTTFVLNGEKHHYFNQRESWQRFRWPGQGDHPGISEGHHHHHH | soluble
11 | MSLNRPNHVAPKTLLETLPRDRAESYLNHCSGNSASASALYLWEMDMAAALHEVLSMTEVAVRGAIDAQLQSFAKSHGVASGEWIKERDSLPHLSELRFANGRPLFDHGSLRRMSRKQEGGRTRMHPRSQASTSHGDLIAQVMFGTWGAMLPDKNDSRPQSVQDAINGLWREALQEAFPQYREGHHHHHH | soluble
12 | MGSDKIHHHHHHMKRRLGLKLYYRRRGHVKPSLLFVIQSHKGEFVKDRLEEYLNNLKIEKKPDSRESWDSYFMRIARMVSERSTCVHRKVGAVIVKDHRILATGYNQPPSKFPHCNEIGCIRDDLEINSGEHQEICYALHAEQNALMQAAKFGIAVNGATIYVTHKPCSICARLIVNAGIKRVVYEKDYPDPLTDFFFKFTGVESVRFVGDEM | not soluble
13 | GSETCIYSNWSPWSACSSSTCEKGKRMRQRMLKAQLDLSVPCPDTQDFQPCMGPGCSDEDG | soluble
14 | MGHHHHHHSHMEIPPTNYPASRAALVAQNYINYQQGTPHRVFEVQKVKQASMEDIPGRGHKYHLKFAVEEIIQKQVKVNCTAEVLYPSTGQETAPEVNFTFEGETGKNPDEEDNTFYQRLKSMKEPLEAQNIPDNFGNVSPEMTLVLHLAWVACGYIIWQNSTEDTWYKMVKIQTVKQVQRNDDFIELDYTILLHNIASQEIIPWQMQVLWHPQYGTKVKHNSRLPKEVQLE | not soluble
15 | MGSSHHHHHHSAGENLYFQGQQGDLMPQSALFTGIIPPVSTIFTADGQLDKPGTAALIDDLIKAGVDGLFFLGSGGEFSQLGAEERKAIARFAIDHVDRRVPVLIGTGGTNARETIELSQHAQQAGADGIVVINPYYWKVSEANLIRYFEQVADSVTLPVMLYNFPALTGQDLTPALVKTLADSRSNIIGIKDTIDSVAHLRSMIHTVKGAHPHFTVLCGYDDHLFNTLLLGGDGAISASGNFAPQVSVNLLKAWRDGDVAKAAGYHQTLLQIPQMYQLDTPFVNVIKEAIVLCGRPVSTHVLPPASPLDEPRKAQLKTLLQQLKLCCGRTRAPPPPPLRSGC | soluble
16 | MSGTEEAILGGRDSHPAAGGGSVLCFGQCQYTAEEYQAIQKALRQRLGPEYISSRMAGGGQKVCYIEGHRVINLANEMFGYNGWAHSITQQNVDFVDLNNGKFYVGVCAFVRVQLKDGSYHEDVGYGVSEGLKSKALSLEKARKEAVTDGLKRALRSFGNALGNCILDKDYLRSLNKLPRQLPLEVDLTKAKRQDLEPSVEEARYNSCRPNM | soluble
17 | MNRLAHHQGIYKFFFTLGLTLQLSKPVIKHLIHIVDALTTKGFSGTLTDIHHWSFHPNHRTTLSHFFTKSPWNEERLLGKLQEWILRRIERKNQPLFVSIDDTICQKTKPSSRATHAIEGCDWHYSHKDHQSVWGHSLVWLMVHTFTQAFPFAFRLYDKKAGRSKIDLAIEMLSSIKVKLTQPVYVLMDSWYPSKTLIEACLKQGFHVIAMLKTNRILYPKGIAIQAKQFARYIEPKDTRLVTVGQERYRVYRYEGAIHGLDDAVVLLAWKADQPMTPEHLHCVLSTDRGLGDEDILRYYAQRWTIECFFRQAKDQLKLDGYRVRHVRAVKRYWAVVLLASVYSIAESRQTLSAGLELLRSRKDHSVVEFIYDAAKQGIPIDVIKKQLRIA | not soluble
18 | MTANRQQYQVESVKESNLEEIVQFLIDNFAQTEAILASLKIDDDKICLKELTVMLRDLVQDSLQCSSTCVIRDVTTRQIDGIALACKTSIFDKQIDRLCAYEFREQRVRDAVEFLKYVFNKLDVMYYLNEHRLYKPVFVALVCVRKELWGRGIGTTLMNHVKSAARTDSSDGLISLCSNERGHKLMKTYCPTDFAAVRYDAFKGEHLRPPIVMRPPETFHSVYAMLSKFN | soluble
19 | MAHHHHHHMAEEGSGLHQFWNTQPVPQSSIDAADTVGPLEAAGTVDDVPTDPVAIASTLEWWSPDMDNKDDVRAIYELLRDNYVEDVESMFRFNYSEDFLRWALTPPGYHSSWHVAVRRKRDQMLMGFVSGIPVTMRMGAPKKVLQKNKTTEEKEQGPEEKNNDHKSQAEELYLEPRKICEINFLCVHKLLRAKRLAPILIKEVTRRVHLMNIWQAVYTAGRLLPTPFATADYYHRSLNPEKLVAVGFSAIPQQYQKFQNPLSMIKRFYELPAKPKTRGLRPMEPKDAPQVANLLRKKLATCDVAPVFTDEEVAHYTLPREGVLMSYVVEREVSGGGGGGRVDSSRGKQNDAGTQKQITDFFSFFSLPSSIIGSSKHSVLNAAYVFYSANTTISLVHLMSDLLIVAHQQGFDVCNVVNIMDNGDYLSELKFGRGDGNLHYYFYNWSYPIVQPSDVGLFML | not soluble
20 | MRKLSKRLLGTVHVATSSTPPGSPFSLVNRQFLLLPTMDKLMGEICREKQIVDRCKMSIDRKEPYDLISMKQQIEISLSKITAMKMRLFHMQNNSETHNSPCSINQQILNTQLLCHGARKVRESLRKDESPNEKVLRETEQTILVLNEKLDLLSNCCSQKESSLTPISVRRSRGGPSKTNNFPVAVSGFLKIRVTGLADLPNNTKHRSGRYASEHFAQLIKKKKSMFGRHGFRRYPNRSSAVNDYIIVIHVGGKEVATMVWNEKKTMVGGDEETIQLFKSRQLDFEIYHTDSRSLCAIGSMQLESLLDEHDAKFPFATFAHRVVNLIPEGTLHFQTTYSDPEQSMEKKLGDTCTDGVSKLAVSMRKSGSVLARGSKTFYSPRTAISLNQFVPLTPSMKSRTRRIDSLDSYRLISEIGVGAFGTVKLGTKDP | not soluble
21 | MGSDKIHHHHHHMRQPDHDDERAQCFAGFAPESIAHYLEHVWLGTPNPVEEPALADDRTASLAVIPVSELAGRRTELLDAMVTLYGGERETHARALLSQWTKYYFGFTATAGFVAAALLRRPLAMSPDNTHIVLRDGLPIAAYFARDALQPVECDPARRYAPLVEHLNAVIEMLCTMTRIAPRVLWSNAGNLLDYLFEQCAPQFDLSEDIAWLFGPLAANGEANPLRLPVRQAKPRAASLPNPFSARRVCCVRYEIPGETQLCGRCPLLLTMSDAEIALQAASQ | not soluble
